Test: soluble on expression in E. coli; label from the status in PepcDB or PDB records

| Sequence | soluble on expression in E. coli |
| --- | --- |
| MGSDKIHHHHHHMLRSTISLLMNSAAQKTMTNSNFVLNAPKITLTKVEQNICNLLNDYTDLYNQKYHNKPEPLTLRITGGWVRDKLLGQGSHDLDIAINVMSGEQFATGLNEYLQQHYAKYGAKPHNIHKIDKNPEKSKHLETATTKLFGVEVDFVNLRSEKYTELSRIPKVCFGTPEEDALRRDATLNALFYNIHKGEVEDFTKRGLQDLKDGVLRTPLPAKQTFLDDPLRVLRLIRFASRFNFTIDPEVMAEMGDPQINVAFNSKISRERVGVEMEKILVGPTPLLALQLIQRAHLENVIFFWHNDSSVVKFNEENCQDMDKINHVYNDNILNSHLKSFIELYPMFLEKLPILREKIGRSPGFQQNFILSAILSPMANLQIIGNPKKKINNLVSVTESIVKEGLKLSKNDAAVIAKTVDSICSYEEILAKFADRSQLKKSEIGIFLRNFNGEWETAHFASLSDAFLKIPKLETKKIELLFQNYNEFYSYIFDNNLNNCHELKPIVDGKQMAKLLQMKPGPWLGKINNEAIRWQFDNPTGTDQELITHLKAILPKYL | not soluble |
| MSRPESVLQLARKFGEISAAQENDIHKSRLSLKLGGKENLTKPTLILSKSGPPTPIRHVAPTITHTLPNRPNIGGIASLKSEPKMSRPNMFKQMEKVESNTTTTAPPRQLNPNSIKDALLRWIQNRVAGYPNVNVTNFSSSWADGMAFCALIHRFAPNSFDFSKLDPNNRRYNFDLAFKVAEDNGIFPLLEVDDMIMMGDRPDWKCVFTYVQSFYKQFRDHP | not soluble |
| MAHHHHHHMEENNQVEKNKTNQLCFVKMLVNNLVAGSVIGKNGSIITSIENKTGCSLKLSPTNSYFPNTQERVLVLCGKQEQINNALLIILDKIRQITVQSFQDKQNMNTVPKYTCRIVIPKSAASAIIGKGGQQIKQLQDSTGAKIQISSREDGLNERIISIIGPFESISDTAIKVTNSIQNDPNLKDLLNVIYNKDTNMNGRSSLSQNFVNQVPLNGYVVPQQYGVFQHEQYMDVNMMNSLMRHSRDLFNLPCEISIQI | not soluble |
| MAHHHHHHMFKCATRCLLDTKTVPLKPQRPFKLHTAGRTDMAPLPTQAVYDAEQLKQSLALMFRIRRMESLCDQSYKLKKIRGFCHLYIGQEAIPAGMENVLTFEDPIITGYRDHGWYISRGGKPEDVFAEMFGRQGGCSKGKGGSMHMYRVDNGFYGGNGIVGAQVSIGAGLAWRFAMENRDSPKHVAVTFYGDGAANQGQIYESMNIAALQRLPVIFAVENNHFGMGTSAARGSYQAEFYRRGDYIPGIKVDGMDVLAVQEGTRYARDYCMSGKGPIVMELDCYRYMGHSMSDPDNQYRTKSDIQHVKQERDCIRKMREFMATEGIMTEDEMSKMEKDVKKEVDQDLQKAQKQPMTKLDELFTDIYVGEQYEHRTCQGTVYHKP | not soluble |
| MHRLRNLREDVSDGSLGHGGGGLMYDVVVVGAGPAGSMAAKTAAEQGLKVLLVEKRQEIGTPVRCAEGISRESIEKFFEVDKKWIAAEVTGAKIYAPNKTEIVMSEEMAGNEVGYVLERKIFDRHVARLAAKAGAEVYVKTAMVDFERKDGKVKVKLRRLGEDWEVETKILIGADGVESKIGRKAGIIKTLKLNEVESCAQYLMTGLDIDESYTYFYLGRELAPGGYAWIFPKGNGSANVGIGVLPKMAERTAKEYLDAFIEKEGIEGKIVEFVAGAVPVYGEIETAVADNIMLAGDAAYHADPITGGGIANALSAGYYAGKVAAEAVQKNDFSADFLRRYDELWKNDFGKKLRRNKKLQLKFIDMDDALLNKLAGAIAGKNLREMSVAAIVKELLKAHPKLLWDLKDLFLEHHHHHH | soluble |
| MKTPDQKSCETAESSNTKYSPNLVIDGAAVSNEDVAGKVADLEYAHSFPDLVLNVEKHDDEYIKSFLLQRNWYHGMMFGKAAEKLLKWESSYIVRRSMGPTHKFLCITARVEDKYFHFQFNWNSEGWSCPILYEKFPRIPVKRYEHIYQLLDAWSLVVNQLVPISRCSMILQHSSIALENQLGRGAFGEVIKAKYVPMGATVPTEVAVKRLIGDAKRPQLVDFCNEANIMTLLEHKNIVALYGFASLQQPIMLVIEFVPGGDLRKYLQRTPNVPSKQIIKFAMEIASGMKHLSSKNVIHRDLAARNCLITKELNVKISDFGLSVNESETKMKSLKKAPIRWLSPETFSKGLFNEKTDVWSYGVLLTELMTRCAHDPLWPKNLKQVQKWIKESEHPHKIEDGDPSELKEIVDACCAKIPSVRINFREVKNRLAMLQQKKKTLELDAQKPMSPNPAIEKKKSEDRRNNMDRRNKTNRKSHTSTDRTNSNNTLTRKKSRDAGKNDRSNERKNKAKGGNLSVDGTNKSSRRKEQKGAVGISQEMVTK | not soluble |
| GSSRGIPPKIEALPSDISIDEGKVLTVACAFTGEPTPEVTWSCGGRKIHSQEQGRFHIENTDDLTTLIIMDVQKQDGGLYTLSLGNEFGSDSATVNIHIRSI | soluble |
| SINVYLSLFSQGAESITTYTFNTHKAQHTFCKRCGVQSFYTPRSNPGGFGIAPHCLDEGTVRSVVTEEFNGSDWERAMKEHKTIKNMSKE | soluble |
| MAHHHHHHMGSKHPRGSTSAPAHEEEQQAHVDTEHHTEPPSFTAGPEVAEMQVTVTPTMPPTSMEQASMTVSGEGPSTLAVPKQQHLRHKSFTMTEVQQLISVNPDRTLVIIRDKVYDVTTFLASHPGGKSALRRNNGKDVTDAFFSMHSAMAVRKLPDFLIGELAPPESTSAAGEETPTAALVPARLRMADITKALSEDLNRIILILFSDAYDVTSMRDKHPGGLSVLVNNNGRECGDTFMRIHGLLAKEMVKQFYLGPVEGLAQGRSPLRPAVAAEVESTAITPAGPKAQSTRILEIESVNSTVTIRYFTFSCPKPLYMIPGGHIKLYSNLHEKESRFYTPFKTGVSSFTICMKHYPNGRTSGYLFDLKEGDEVFFDGPLPPSWQLNTDAAVQRAAPEERHVVLVGGGTGIAPLYSMSSNALETQFSSVTLVCSVRTPDDLILATELRQLANRYSTALPIQKHTLRIVLLFSRASPQDISVESTSFASHVLCGGRLTAESFKGTEIHPAQAVVVCGPPTFNDAVAAAVLEAGICTATQVHHL | not soluble |
| MSATGKVSRPIQVFTRANYFFKLIFQFKVRKYNSLTVERIFIRAMCGSDDSFDDFVPDSQEPASSRTRNQDHLDDDEVPCSQRPDAANDTMVEDLDEGDEPAHDESEDIIKILVATDIHCGYGENKANIHMDAVNTFEEVLQIATEQKVDMILLGGDLFHENNPSREVQHRVTQLLRQYCLNGNPIALEFLSDASVNFNQSVFGHVNYYDQNLNVGLPIFTIHGNHDDLSGKGLTALDLLHESGLVNLFGKHSNIQEFIVSPILLRKGETRLALYGIGSQRDDRLVRAFKNNSISFLRPNAGAEDWFNLFVLHQNRPRRAMHRSTGNFLPESLIPQFFDLLIWGHEHECKPDPQYVASSEAVGDGFYILQPGSTVATSLTPEEALQKNAFLIKIKGRKFASKPIPLQTVRPMVCDELLLDKIPPGSRPILKTDRPKHTDGRYIDEIAIEAKINEMITTAKAKRRPRQPELPLIRLKVIYDGDWLNITPANAKRIGLRYENVVANAVDMVFIKKNNKPKEGKLQTENEKNITEMADEMGQVSATNLQTIINDYFINQPLVDQMTVLKPIGIGRALEQYSAIEEGGLATSANRNFDSCLMHQIDVVRKTLKKMPLPPINDPSDLDKFRDLITKDLYDMKKADSERFKNPVADVEMEEDEDDPQYYMPPQSTSRTNYASGSEDEVANSDEEMGSSISRHSKQPTTRGRGRGARGAGASRETTRGRSNKVVSTRQIDSDGFEIINDSPSPPPASRSTRGKARGKSAPSKKRDLSFF | not soluble |
| MPLTDTPPSVPQKPRRGRPRGAPDASLAHQSLIRAGLEHLTEKGYSSVGVDEILKAARVPKGSFYHYFRNKADFGLALIEAYDTYFARLLDQAFLDGSLAPLARLRLFTRMAEEGMARHGFRRGCLVGNLGQEMGALPDDFRAALIGVLETWQRRTAQLFREAQACGELSADHDPDALAEAFWIGWEGAILRAKLELRPDPLHSFTRTFGRHFVTRTQE | soluble |
| MGSDKIHHHHHHAMSSCGSTKEAASLSSLNGEWNIIEVNGSAIVPAENQELPFIGFDTATGKVYGNSGCNRMMGSIDLNSKPGTIDMSRLGSTRMACPDMTTEQNVLNALGQVKSYKKLGKHNMALCNASNRPVVVLQKKASDVKLSALNGEWKIEEVNGEAIPSGMEKQPFINFDVRKKSIHGNAGCNLINGGFETDKENPRSISFPNVISTMMACPDMEVEGKVMKAINEVKSFDVLSGGGIGFYSADGTLVMVLVKK | not soluble |
| MFDIILEIVILLFNLLIQNLISLIKYALPYSLLPKKDLYRKKVLITGAGNGLGKLLAQKFAARGATLILWDINLQSVDELKNEIRGNQGEAHSYEVNLCDPGKIAQVGQQVINDIGKVDILVNNAGIATAKMILDSSENEINRSFDVNVKAHFYTVQQFLPAMLKDNNGHIVTIASAAGKMGSSGLADYSSTKHAAVGFHDSLVAEIMESEKNGVKTTLVCPYYVHTSMFDATGAATRFPWIFPILDTDYVVQKIFEAIETEQEFLVTPRAFYLVFAGIQILPYKAQAMVAQFFGLVQNLERFHK | not soluble |
| MANSAGSMQQILNQFNHVVAIGGGHGLGRVLSSLDFLGNRLTGIVATTDNGGSTGRLRAEQDCIAWGDLRNCLSQLAHRPSVGSQLFEYRFQGETELSGHNLGNLMLLALDKLCVRPLEAVNLIRHMLKIETNIIPMSEQPTHLVALQASGSKVFGEVNVDKMNEAPIALCLEPQVNATTEACEAIRRADLIILGPGSFLTSIMPPLLLPCFAKALAMTTAPVVFIDNLNEEASPAGQFSIEQRISWCHQVIGKPVITKVLRHSEQLRLGTLVNYFPLRNRHNPQLHDQASLRDALCAVLRIKSGLPLETLVSLEHHHHHH | not soluble |
| MKTAIVTDSASYLSAADVEKYHIHVVPITVIFGHQTYLENVEITSKEFYERMRTAPELPTTTQITLGQMQTTYDQLAKAGYDAVISIHLSSGITSFITNLESYLPNVTNIKVYPFDSLITAGGEAYMVLLAAKLVTEGYSPEQVIAQLKKIRETTGVYFVVDNLSHLVRTGRLSNASGLVGNLLRIKPVLTFQDGKIVAIQKERTMRRAYAAIKAKLAAEIAAVDYPLRVTIENGNNPKLQAEWTADLKASFPDLTIDEGEIGPVVGVHVGEGVMGLIWARDWEKWTI | not soluble |
| MSLGQYDMQLIMGRTRWNGEFIGFERSTEKGVFSSNLKTEFMVELAESGGVGVFLNRRRVAALSLDGSRRALEAVLSCQKAFMTAQSDTRDEPSTDTKPKRHTKSSGTGFYVSDSGHIVTNHHVIAECSTINVLPPGGAAVSATLVAKDKTNDLAILKTASSPAAIPGLRSQMRLGEAVYVFGFPLTGILSTSGNFTAGAITATTGMEDDTRLAQISAPVQPGNSGGPLLDKYGNVIGVIVSKLNALNIAAATKDIPQNVNFAIKTGIATNFLDSSGVVPTGKVSTRELAPEAIADLAKIFTVQVLCNEGHHHHHH | not soluble |
| MSALAVALARQSESHADCPLFNDPYAQVFIDAALSRGCQLPSDETSERINGIANYASSRTKWFDEYFIAAGAHGLEQMVIVAAGLDARAWRLPWVAGTTLFEIDHPGVLKFKNEALHEHGESPSVSRYVPVPADLSDGWSERLRDAGFDVSEPTAWAVEGLLPYVADGPHLLFDRIHEISPAGSRLAVEAVGTGVADWLSTQGWQVTMIGAQELMTRYGRCGDHSDTDAGMDTVFVNATRTR | soluble |
| MKQKNENAPRPGGAGRKPKADPAVFRYSISFNAIDHARFLALFDQSGMRTKAHFITARIFGEPFKVIKIDKAAVEYYTRLTALYSQYRGIAVNYNQVVKALNTNFSEKKALAFLYKLEKATIELADLNRQIIELTREFETRWLQR | not soluble |

Source: the DeepSol protein solubility set
